In the nanobody polyreactivity screen of Harvey et al. (2022):

Test: yeast display, Sf9 membrane polyspecificity reagent, FACS + sequencing; frameworks hold sequencing errors
Method in brief: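 Nanobodies from a synthetic yeast display library (Saccharomyces cerevisiae BJ5465), induced 36–48 hours with galactose, were stained 1 hour at 4 °C with 10% biotinylated, detergent-solubilized Sf9 membrane reagent, enriched on streptavidin microbeads, then FACS-sorted. Anti-HA (expression) and streptavidin (reagent binding) fluorescence set low and high (top ~1%) gates. Polyreactivity labels come from the gate of origin. Genes were colony-PCR amplified, MiSeq 2 × 250 sequenced and filtered by CDR length.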

Row | Sequence | polyreactivity (PSR sort gate)
1 | QVQLVESGGGLVQAGGSLRLSCAASGSIFSDYAMGWYRQAPGKERELVAASTQSGGSTYADSLKGRFSISRDNAKNTVYLQMNSLKPEDTAVYYCADRHDKRRQYYVGQSAFDYWGQGTQVTVSS | low polyreactivity
2 | QVQLVESGGGLVQAGGSLRLSCAASGSIFWSYAMGWYRQAPGKEREFVASITGSGGTTTYADSVKGRFTISRDNAKNTVYLQMNSLKPEDTAVYYCNARLHGWYHVYYIYDYWGQGTQVTVSS | low polyreactivity
3 | QVQLVESGGGLVQAGGSLRLSCAASGFIFNTNAMRWYRQAPVKEREFDAAITSSDGNTYYADSVKGRFTISRDNAKNTVYLQMNSLKPEDTAVYYCAADARTKSYVRLYDYWGQGTQVTVSS | low polyreactivity
4 | QVQLVESGGGLLQAGGSLRLSCAASGRIFTWNAMGWYRQAPGKERELVARISSGTPTNYADSLKGRFTISRDNAKNTVYLQMNCLKPEDTAVYYCAAQSRPPFVKQYWWQRDYWGQATQVTVSS | high polyreactivity
5 | QVQLVESGGGLVQAGGSLRLSCAASGRTFLLYAMGWYRQAPGKERELVAAISRGGGSTFYADTVKGRFTLSRDNAKNTVYLQRNSLKPDDTAVYYCAAYGRYYYIYDYCGQGTQVTVSS | high polyreactivity
6 | QVQLQESGGGLVQAGGTLRLSCAVSGTIFFPLDMGWYRQAPGREREYVAAIAEGTSTYYADSVKGRFTISRDNAKNTVFPQMYSLKPEDTAVYYCAAYRSTPQQFHYWGQGTQVTVSS | high polyreactivity
7 | QVQLVESGGGLVQAGGSLRLSCAASGSILYPYAMGWYRQAPGKERELVAAIRSRGGSTYYADSVKGRFTISRDNAKNTGYLQMNSLKPEDTAVYYCAAGSTRARFDYWGQGTQVTVSS | high polyreactivity
8 | QVHFVESGGGLVQAGGSLRLSSAASGRTFQYNAMGWYRQAPGKERELVARITWSGDSTYYADSVKGRFTISRDNAKNSVYLQMNSLKPEDTAVYYCNAGRRWRRTAYDYWGQGTQVTVSS | high polyreactivity
9 | QVQRVESGGGLVQAGGSLRLSCAASGRIFEYYAMGWSRQAPGKERELVAAINTGGNTYYADSVKGRFTISRDNAKNTVYLQMNSLKPEDTAVYYCATYPIWYGGYLSGTDYDYWGQGTQVTVSS | low polyreactivity
10 | QVQLVESGGGLVQAGGSLRLSCAASGSIFQFSAKGWYRQAPGKERELVAGINTSGGSTYYADSVKGRFTISRDNAKNTVYLQMHSLKPEDTAVYYCMARSRYDTGPQRGYDYWGQGTQVTVSS | low polyreactivity
11 | QLQLVESRPGLVPAGGSLRLSCAPSGSTFSYYAMGRYRQAPGKERELDAAISKSGGSTYYADSVKGRFTISRDNAINTVFLQMNSLKPYDTAFYYCSTRSRDPYSVSYRLDYWGQGTQVTVSS | low polyreactivity
12 | QVQLVETAGRLVQAGGSLRLSSAASGFTFYIYAMGWSRHAPGKERQLVAAISGGGSTYYADSVKGRFTISRDNAKNTVYLQMNSLKPEVTAVYYCAVFPAAIYHRRGTYDYWGQGTQVTVSS | high polyreactivity
13 | EEELVESGGGLVQAGGSLRLSCAASGNIFEVNTMGWYRQAPGKERELVAAITSTGSTNYADSVKGRFTISRDNAKNTVYLQMNSLKPVDTAVYYSSATLEWYRYTYEYDYWGQGTQVTVSS | low polyreactivity
14 | QVQLVESGGGLVQAGGSLRLTCAASGRIFTRYAMGWYRQAPGKERELVAAINYRGSSTYYADSVKGRFTISRDNAKNTVYLQMNSLKPEDTAVYYCNTYGQTDTYWRYYYWGQGTQVTVSS | high polyreactivity
15 | QVQLVESGGGLVQAGGSLRLSCAASGRTFNPNAMGWYRQAPGKERELVAAISSSGGSTYYADSVKGRFTISRDNAKNTVYLQMNSLKPEDTAVYYCAAVHKWYLYYYWGQGTQVTVSS | high polyreactivity
16 | QVQLVESGGGLVQAGGSLRLSCAASGRTFYRNAMGWYRQAPGKERELVATITRRGGSTYYADSVKGRFTISRDNAKNTVYLQMISLKPEDTAVYYCAAGSKDLYRPYDYWGQGTQVTVSS | high polyreactivity
17 | QVQLVESGGGLVQAGGSLRLSCAASGSTFYIYAMGWYRQAPGKERELVAAITWSGSRTYYADSVKGRFTISRDNAKNTVYLQMNSLKPEDTAVYYCAARSYRNNRYKEDYWGQGTQVTVSS | high polyreactivity
18 | QVQLVESGGGLVQAGGILRLSSAASGRTILSYAMGWYRQAPGKERELVAAITRSGGGTFYADSVKGRFTLSRDNAKNTVYVQMNSLKPEDTAVYYCAARYYNYASPTRFKYNYWGQGTQVTVSS | high polyreactivity
19 | QVQLVESGGGLVQAGGSLRLSCAASGSTFSYYDMGWYREAPGKERELVAVITTSGVSTYYADSVKGRFTISRDNAKNTVYLQMNSLKPEDTAVYYCNADYGYDSVVEYDYWGQGTQVTVSS | low polyreactivity
20 | QVQLVESGGGLVQAGVSLRISSAASGLIFGSNAMGWYRQAPGIERELVAAISWRGGSTYYADSVKGRFTISRDNAKKTVSCQMNSLKPEDTAVYYCAKYPYYYYWFNYCGQGTQVTVSS | high polyreactivity
21 | QVQLVESGGGLVQAGGSLRLSCAASGSIFDPNAMGWYRQAPGKERELVAAITSGGGSTYYADSVKGRFTISRDNAKNTVYLQMNSLNPEDTAVYYCNKVFVLPYKFVAWFDYWGQGTQVTVSS | low polyreactivity
22 | QVQLVESGGGLVQAGGSLRLSCAASGSIFDINAMGWYRQAPGKEREFVAAISWSGGTTYYADSVKGRFTISRDNAKNPVYLQMNSLKPEDTAVYYCAALSYVKRRQSYGYWGLGTQVTVSS | high polyreactivity

Row | Sequence | polyreactivity (PSR sort gate)
23 | QVQLVESGGGLVQAGGSLRLSCAASVRIYPYYDRGWYRQAPGKDRELVASTNYADSVKGRFTISRDNAKNTVYLQMNSLKPEDTAVYYCNKRIYGWGGSRYDYWGQGTQVTVSS | low polyreactivity
24 | QVQLVESGGGLVQAGGSLRLSCAASGGTFYYYAMGWYRQAPGKERELVAAITKNGGSTYYADSVKGRFTISRDNAKNTVYLQMNSLKPEDTAVYYCAASRFGRMDYWGQGTQVTVSS | high polyreactivity
25 | QVQLVESGGGLVQAGRSLRLSCAASGRIFSRYTMGWYRQAPGKERELVAANSYRGGSTYYADSVKGRFTISRDNAKNTVYLQMNSLKPEDTEVYYCAARVQAIYRYDYCGQGTQVTVSS | high polyreactivity
26 | QVQLVESGGGLVQAGGRLRLSCAASGFTFTPYAMGWYRQAPGTERELVAAISWGDGSTYYADSVKGRFTISRDNAKNTVYLQMNSLKPEDTAVYYCAAYRGPRIYRYDYWGQGTQVTVSS | high polyreactivity
27 | QVQLVESGGGLVQAGGSLRLSCAASGFTLHVYAMGWYRQAPGKERELVAAISTGGNTNFADSVKGRFTISRDNAKNTVYLQMNSLKPEDTAVYYCNTLGRYSSYYWGLGTQVTVSS | high polyreactivity
28 | QVQLVESGGGLVQAGGSLRLSCAASGRIFATNAMGLYRQAPGKERELVATITRSAGRTYYADSVKGRFTISRDNAKNTVYLQMNSLKPEDTAVYYCAASYWDTEPGYREYDYWGQGTQVTVSS | low polyreactivity
29 | QVQLVESGGGLVQAGGSLRLSCAPSGRTFWYNAMGWYRQAPGKERELVATITSGGRTSYADSVKGRFTISRDNAKNTVYLQMNSLKPEDTAVYYCAATTGWYGARYGYWGQGTQVTVSS | high polyreactivity
30 | QVQLVESGGGLVQAGGSLRLSCAASGNIFSDYAMGWYRPAPGKERELVAAISSGGNTNYADSVKGRFTISRDNAKNTVYLQMNSLKPEDTAVYYCAADPGYYVSAYDYWGQGTQVTVSS | low polyreactivity
31 | QVQLVESGGGLVQAGGSLRLSCAASGIIFTDYAMGWYRQAPGTERELVAAISSGGGSTYYADSVKGRFTISRDNAKYSVYLQMNSLKPDDTAVYYGAAQSSGSYGFDHWGQGTQVTVSS | high polyreactivity
32 | QVQLVESGGGLVQAGGSLRLSCAASGLTLDYYARGWYRQAPGKDRELVAVIRGRSGSTYYADSVKGRFTISRDNAKNTVYLQMNSLKPEDTAVYYCARVTTYGDYYWGQGTQVTVSS | high polyreactivity
33 | QVQLVESGGGLVQAGGSLRLSCAASGRIFYLNDMGWYRQAPGKERELVATITSTGGSTYYADSVKGRFTISRDNAKNTVYLQMNSLKPEDTAVYYCAAGGWRAYSYTARYDYWGQGTQVTVSS | low polyreactivity
34 | QVQLVESGGGLVQAGGSLRLSCAATGRIFRYYAMGLYRQAPGNERELVAAIRRGGSTTYADSVKGRFTISRDNAKNTFYLQMNSLKPEDTAVYYCAATQYYRGYDYWGQGSQVTVSS | high polyreactivity
35 | QVQLVESGGVLVQAGGSLRLSCAASGITFPGYAMGWYRKAPGKERELVAAISAIGGRTYYADSVKGRFTISRYNAKNTVYLQMNSLKPEDTAVYYCNVLPYGGKKPTLFDYWGQGTQVTVSS | high polyreactivity
36 | QVQLVESGGGLVQAGGSLRLSCAASGFTFTTYAMGWYRQAPGKEREFVAAITKRGGRTYYADSVKGRFTISRDYAKNTVYVQMNSLKPEDTAVYYCNKVVHSFPFPYRYDMDYWGQGTQVTVSS | high polyreactivity
37 | QVQLVESGGGLVQAGGSLRLSCAASGSTVAYYAMGWYRQAPGKERELVAAITWNGGRTFYADSVKGRFTISRDNAKNTVYLQMNSLKPEDTAVYYCAAATYQSRYFQRFDYWGQGTQVTVSS | high polyreactivity
38 | QVQLVESGGGLVQPGGSLRLSCAASGSIFYWYNMGWYRQAPGKERELVAAINDSGGSTHYADSVKGRFTISRDNEKNTFYLQMNSLKPEDTAVYYCAARKLSSYAYDYWGQGTQVTVSS | low polyreactivity
39 | QVQLVESGGGLVQAGGSLRLSCAASGFIFTYYAMGWYRQAPGKERELVAVISWSGGTTYYADSVKGRFTISRDNAKNTVYLQMNSLKPEDTAVYYCAAGKVSFWLVFEYDYWGQGTQVTVSS | low polyreactivity
40 | QVQLVESGGGLVQAGGSLRLSCAASGSIFSVNTMGWYRQAPGKERELVAAISESGDGTYYADSVKGRFTISRDNAKNTVYLQMNSLKPEDTAVYYCNADRQKGGGYYPHEFDYWGQGTQVTVSS | low polyreactivity
41 | QVQLVESGGGLVQAGGSLRLSCAASGRTFYRYGMGWYRQAPGKEREFVAAITRSGDSTYADSVKGRFTISRDNAKITVYLQMNSLKPEDTAVYYCAKVFLRQYAYRYYYWGQGTQVTVSS | high polyreactivity
42 | QVQLVESGGGLVQAGGSLRLSCAASGRTFKGYTMGWYRQAPGKERELVAVITWSGDRTYYADSVKGRFTISRDNAKNTVYLQMNSLKPEDTAVYYCAARGYSLRTRGDYWGQGTQVTVSS | high polyreactivity
43 | QVQLVETGGGLVQAGGSLRLSCAASGGILVGYALGWYRQAPGKERELVAAINYSGGSTNYADSVKGRFTISRDNAKNTVYLQMNSLKPEDTAVYYCAARSTARYGYWGQGTQVTVSS | low polyreactivity
